T1: Receptor Interacting Protein Kinase-1 (RIPK1) (human, UniProt Q13546 1-671)
T1 construct: Endogenous protein in human AD and CTL brain extracts (TBS/Triton-X100) and in human cell lysates; also called RIP1
T1 sequence (looked up): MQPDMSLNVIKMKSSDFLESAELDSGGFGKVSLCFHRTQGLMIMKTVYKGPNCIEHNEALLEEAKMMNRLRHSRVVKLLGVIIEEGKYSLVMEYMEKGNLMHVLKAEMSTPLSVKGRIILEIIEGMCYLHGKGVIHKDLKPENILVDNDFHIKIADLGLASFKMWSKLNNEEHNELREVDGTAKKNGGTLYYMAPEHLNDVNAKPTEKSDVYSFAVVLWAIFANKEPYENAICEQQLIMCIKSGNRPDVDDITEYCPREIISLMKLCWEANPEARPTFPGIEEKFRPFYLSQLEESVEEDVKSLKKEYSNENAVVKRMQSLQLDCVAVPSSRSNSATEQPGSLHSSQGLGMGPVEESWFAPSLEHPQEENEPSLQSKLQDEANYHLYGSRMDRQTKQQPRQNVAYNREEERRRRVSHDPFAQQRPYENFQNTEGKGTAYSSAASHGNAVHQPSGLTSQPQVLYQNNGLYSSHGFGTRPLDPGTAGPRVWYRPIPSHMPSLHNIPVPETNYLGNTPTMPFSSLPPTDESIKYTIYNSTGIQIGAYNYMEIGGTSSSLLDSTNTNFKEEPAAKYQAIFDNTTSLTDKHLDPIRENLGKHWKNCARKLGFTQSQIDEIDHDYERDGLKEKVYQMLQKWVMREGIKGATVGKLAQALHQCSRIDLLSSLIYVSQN

B1: Receptor Interacting Protein Kinase-3 (RIPK3) (enzyme, human, UniProt Q9Y572 1-518, looked up)
chain: MSCVKLWPSGAPAPLVSIEELENQELVGKGGFGTVFRAQHRKWGYDVAVKIVNSKAISREVKAMASLDNEFVLRLEGVIEKVNWDQDPKPALVTKFMENGSLSGLLQSQCPRPWPLLCRLLKEVVLGMFYLHDQNPVLLHRDLKPSNVLLDPELHVKLADFGLSTFQGGSQSGTGSGEPGGTLGYLAPELFVNVNRKASTASDVYSFGILMWAVLAGREVELPTEPSLVYEAVCNRQNRPSLAELPQAGPETPGLEGLKELMQLCWSSEPKDRPSFQECLPKTDEVFQMVENNMNAAVSTVKDFLSQLRSSNRRFSIPESGQGGTEMDGFRRTIENQHSRNDVMVSEWLNKLNLEEPPSSVPKKCPSLTKRSRAQEEQVPQAWTAGTSSDSMAQPPQTPETSTFRNQMPSPTSTGTPSPGPRGNQGAERQGMNWSCRTPEPNPVTGRPLVNIYNCSGVQVGDNNYLTMQQTTALPTWGLAPSGKGRGLQHPPPVGSQEGPKDPEAWSRPQGWYNHSGK
notes: Endogenous protein in human brain sections
B2: Mixed Lineage Kinase Domain-Like (MLKL) (other)
chain: MENLKHIITLGQVIHKRCEEMKYCKKQCRRLGHRVLGLIKPLEMLQDQGKRSVPSEKLTTAMNRFKAALEEANGEIEKFSNRSNICRFLTASQDKILFKDVNRKLSDVWKELSLLLQVEQRMPVSPISQGASWAQEDQQDADEDRRAFQMLRRDNEKIEASLRRLEINMKEIKETLRQYLPPKCMQEIPQEQIKEIKKEQLSGSPWILLRENEVSTLYKGEYHRAPVAIKVFKKLQAGSIAIVRQTFNKEIKTMKKFESPNILRIFGICIDETVTPPQFSIVMEYCELGTLRELLDREKDLTLGKRMVLVLGAARGLYRLHHSEAPELHGKIRSSNFLVTQGYQVKLAGFELRKTQTSMSLGTTREKTDRVKSTAYLSPQELEDVFYQYDVKSEIYSFGIVLWEIATGDIPFQGCNSEKIRKLVAVKRQQEPLGEDCPSELREIIDECRAHDPSVRPSVDEILKKLSTFSK
notes: Endogenous protein in human brain extracts and HAP1 cells

What was measured:
[1] = target: T1, Receptor Interacting Protein Kinase-1 …; experiment: confocal co-localization in co-labeled human brain sections
Method: (§1) The tissue was then washed in water and let dry overnight. The next day the slides were cleared in xylene and coverslipped with DPX mounting solution (Sigma-Aldrich). The immunohistochemistry on the brain sections from APP/PS1 was conducted following a similar protocol as we previously detailed 49. In this case, sections were stained with an anti-A(342 specific antibody (1:200; Millipore, catalog number AB5078P) and with a neuronal marker NeuN (1:200, Millipore, catalog number MAB377), Iba1 (Wako), GFAP (Cell Signaling) and GFP (1:200, Thermo Fisher Scientific, catalog number A-11122).
(§2) Confocal microscopy and image analysis: All images were acquired at a resolution size of x=1024, y=1024, and z=1, using a 63× oil immersion objective and zoom of 1.5 using the Leica DM 2500 confocal microscope. Image fields within the x-y plane of the tissue section were randomly selected. For each image acquired, channels were split to allow separate pixel quantification in both the 561 nm and 635 nm channels. To quantify total protein in each image field, channels were split and the integrated signal density of each channel was quantified using ImageJ software. Human brain tissue sections immunostained for RIPK1, RIPK3, MLKL, and pMLKL were analyzed to measure absolute protein levels, as well as co-localization between RIPK1 and RIPK3, RIPK3 and MLKL, and RIPK1 and MLKL. […]

[2] = target: B1; experiment: as above
Method: as §1, §2

Row | Binder | binding result [1] | binding result [2]
1 | B1 | binds | 
2 | B2 |  | binds
